For data set [1] the following is noted: cited from earlier work.
The target of a further data set is hY4R (Homo sapiens, UniProt P50391). Kind of data set: Radioligand binding assay, displacement of [3H]-hPP. (In general: Loss of bound radioactivity is the signal in a displacement assay; it reports binding, not function.)
hY4R, sequence (P50391 whole entry): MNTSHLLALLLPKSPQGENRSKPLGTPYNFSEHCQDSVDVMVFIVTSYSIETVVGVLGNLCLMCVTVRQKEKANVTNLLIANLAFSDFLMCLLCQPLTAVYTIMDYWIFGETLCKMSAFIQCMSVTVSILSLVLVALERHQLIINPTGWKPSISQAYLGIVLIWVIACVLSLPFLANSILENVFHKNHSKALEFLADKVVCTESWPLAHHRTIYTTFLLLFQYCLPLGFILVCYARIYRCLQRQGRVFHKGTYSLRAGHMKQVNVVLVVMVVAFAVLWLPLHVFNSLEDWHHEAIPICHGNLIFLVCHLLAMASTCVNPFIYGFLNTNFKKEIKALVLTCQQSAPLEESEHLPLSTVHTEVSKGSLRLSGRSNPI

Turning to pancreatic polypeptide [PP], the “half-life in the circulation” value in data set [1] was “less than 7 min”. On to `CCCCCCCCCCCCCCCC(=O)N[C@@H](CCC(=O)NCCCC[C@H](NC(=O)[C@H](C)NC(=O)[C@H](Cc1ccc(O)cc1)NC(=O)[C@H](CCC(N)=O)NC(=O)[C@H](C)NC(=O)[C@H](CCSC)NC(=O)[C@H](CCC(N)=O)NC(=O)[C@H](CCC(=O)O)NC(=O)[C@@H]1CCCN1C(=O)[C@@H](NC(=O)[C@H](C)NC(=O)[C@H](CC(N)=O)NC(=O)[C@H](CC(=O)O)NC(=O)CNC(=O)[C@@H]1CCCN1C(=O)[C@H](Cc1ccc(O)cc1)NC(=O)[C@@H](NC(=O)[C@@H]1CCCN1C(=O)[C@H](CCC(=O)O)NC(=O)[C@H](CC(C)C)NC(=O)[C@@H]1CCCN1C(=O)[C@H](C)NC(=O)c1ccc2c(c1)C(=O)OC21c2ccc(O)cc2Oc2cc(O)ccc21)C(C)C)[C@@H](C)O)C(=O)N[C@@H](CC(=O)O)C(=O)N[C@@H](CC(C)C)C(=O)N[C@@H](CCCNC(=N)N)C(=O)N[C@@H](CCCNC(=N)N)C(=O)N[C@@H](Cc1ccc(O)cc1)C(=O)N[C@H](C(=O)N[C@@H](CC(N)=O)C(=O)N[C@@H](CCSC)C(=O)N[C@@H](CC(C)C)C(=O)N[C@H](C(=O)N[C@@H](CCCNC(=N)N)C(=O)N1CCC[C@H]1C(=O)N[C@@H](CCCNC(=N)N)C(=O)N[C@@H](Cc1ccc(O)cc1)C(N)=O)[C@@H](C)O)[C@@H](C)CC)C(=O)O` [compound 5, CF-[K^22(E-Pam)]hPP], for which the half-maximal inhibitory concentration (IC50) (commonly the concentration needed to halve the response being measured) at hY4R is 8.6 nM.

These data come from paper PMC5518309 (ChemMedChem, 2014).
